Test results published in publication PMC13544220, “Glycemic and bodyweight effects of GIPR coding variation reflect differences in surface expression and intrinsic functional impairment” (Science Advances, 2026).

Experiments:
Type in all cases: cell-based, human
[1] = test system: wild-type and variant SNAP-GIPR; assay: cADDis cAMP imaging in AD293 cells, ensemble, expression-matched and per decile; conditions: Fig S3F, cADDis, mean;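 also: Ensemble cells as % of IBMX/FSK response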
Summary of the method: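 AD293 cells reverse-transfected with wild-type or variant SNAP-GIPR plus cADDis Green Up sensor, variants run in parallel. After 24 h, surface receptor labelled with SNAP-Surface Alexa Fluor 647 (500 nM); single-cell cADDis fluorescence imaged at 37 °C in KRBH, 6 mM glucose, 0.1% BSA. Responses given ensemble, expression-matched by wild-type deciles, or per own decile.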

[2] = test system: wild-type and variant SNAP-GIPR; assay: Surface SNAP-GIPR expression (SNAP-tag labelling) in INS-1 cells; conditions: Fig 4G; Mean
Summary of the method: (§1)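 Read-out: whole-cell fluorescence of surface-only SNAP label (Alexa Fluor 647, 500 nM, 10 min, RT), wide-field 20X, several FOVs per well. Flat-field corrected, phase-contrast masked, nontransfected-well signal subtracted; normalized to experiment mean or wild-type.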

[3] = test system: wild-type and variant SNAP-GIPR; assay: Single-concentration GIP cAMP response by HTRF in INS-1 cells; conditions: Fig S3E, mean
Procedure: (§2) All variants were tested in parallel on each occasion to control for transfection efficiency differences between experiments.

[4] = test system: wild-type and variant SNAP-GIPR; assay: Constitutive and agonist-mediated internalization, reversible SNAP-tag labelling, AD293 cells; design: key to Internalisation, Vehicle / Internalisation, +GIP / Internalisation, GIP-only: % internalization: residual fluorescence after Mesna vs pre-Mesna; Surface expression: unit not given here; conditions: Mean; for +GIP internalisation (100 nM) / GIP-specific internalisation (100 nM) / Constitutive internalisation (100 nM) / Surface expression: Fig 4E; for +GIP internalisation (100 nM) / GIP-specific internalisation (100 nM): GIP 100 nM; for Internalisation, +GIP / Internalisation, GIP-only / Internalisation, Vehicle: Fig S4C, AD293
Summary of the method: (§3)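 Percentage internalization calculated as specific SNAP fluorescence remaining after 10 min Mesna exposure, relative to pre-Mesna signal, imaged in TNE buffer (pH 8.6).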

[5] = test system: wild-type and variant SNAP-GIPR; assay: Single-concentration GIP cAMP response by HTRF in AD293 cells; conditions: Fig S3F, HTRF, mean;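 also: ratio to experiment-wide average response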
Procedure: as §2

[6] = test system: wild-type and variant SNAP-GIPR; assay: Constitutive and agonist-mediated internalization, reversible SNAP-tag labelling, INS-1 cells; design: key to Internalisation, GIP-only / Internalisation, Vehicle / Internalisation, +GIP: % internalization: residual fluorescence after Mesna vs pre-Mesna; conditions: Mean; for +GIP internalisation (100 nM) / GIP-specific internalisation (100 nM) / Constitutive internalisation (100 nM): Fig 4G; for +GIP internalisation (100 nM) / GIP-specific internalisation (100 nM): GIP 100 nM; for Internalisation, +GIP / Internalisation, GIP-only / Internalisation, Vehicle: Fig S4C, INS-1
Summary of the method: as §3

[7] = test system: wild-type and variant SNAP-GIPR; assay: Surface SNAP-GIPR expression (SNAP-tag labelling) in AD293 cells; conditions: for AD293 Surface: Fig S3E, mean; for Surface SNAP-GIPR expression: sheet Fig 1C;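 as to all read-outs here: scaled to the experimental average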
Summary of the method: as §1

[8] = column repeated, paired with cAMP 100 nM

B1: R336P (protein, UniProt P48546 22-466, looked up, variant R336P)
Gastric inhibitory …: RAETGSKGQTAGELYQRWERYRRECQETLAAAEPPSGLACNGSFDMYVCWDYAAPNATARASCPWYLPWHHHVAAGFVLRQCGSDGQWGLWRDHTQCENPEKNEAFLDQRLILERLQVMYTVGYSLSLATLLLALLILSLFRRLHCTRNYIHINLFTSFMLRAAAILSRDRLLPRPGPYLGDQALALWNQALAACRTAQIVTQYCVGANYTWLLVEGVYLHSLLVLVGGSEEGHFRYYLLLGWGAPALFVIPWVIVRYLYENTQCWERNEVKAIWWIIRTPILMTILINFLIFIRILGILLSKLRTRQMRCRDYPLRLARSTLTLVPLLGVHEVVFAPVTEEQARGALRFAKLGFEIFLSSFQGFLVSVLYCFINKEVQSEIRRGWHHCRLRRSLGEEQRQLPERAFRALPSGSGPGEVPTSRGLSSGTLPGPGNEASRELESYC
- AD293 100 pM cADDis [1]: 30.0491
- AD293 100 nM cADDis [1]: 33.63
- Surface expression [2]: 0.9442
- INS-1 cAMP (100 nM) [3]: 0.7986
- +GIP internalisation (100 nM) [4]: 0.6438
- GIP-specific internalisation (100 nM) [4]: 0.1531
- Constitutive internalisation (100 nM) [4]: 0.4907
- Surface expression [4]: 1.092
- Internalisation, +GIP [4]: 55.5681
- Internalisation, GIP-only [4]: 13.0056
- Internalisation, Vehicle [4]: 42.5625
- AD293 100 pM HTRF [5]: 1.285
- AD293 100 nM HTRF [5]: 1.143
- +GIP internalisation (100 nM) [6]: 0.578
- GIP-specific internalisation (100 nM) [6]: 0.1817
- Constitutive internalisation (100 nM) [6]: 0.3963
- Internalisation, +GIP [6]: 55.395
- Internalisation, GIP-only [6]: 16.7483
- Internalisation, Vehicle [6]: 38.6467
- AD293 Surface [7, 8]: 0.9922
- AD293 Surface ([7]; paired with cAMP 100 pM): 0.9922
- Surface SNAP-GIPR expression ([7]; replicate 1): 1.065
- Surface SNAP-GIPR expression ([7]; replicate 2): 0.5013
- Surface SNAP-GIPR expression ([7]; replicate 3): 1.132
- Surface SNAP-GIPR expression ([7]; replicate 4): 0.7089
- Surface SNAP-GIPR expression ([7]; replicate 5): 1.372
- Surface SNAP-GIPR expression ([7]; replicate 6): 0.9533
- Surface SNAP-GIPR expression ([7]; replicate 7): 1.085
- Surface SNAP-GIPR expression ([7]; replicate 8): 0.9069
- Surface SNAP-GIPR expression ([7]; replicate 9): 0.9059
- Surface SNAP-GIPR expression ([7]; replicate 10): 0.7148
- Surface SNAP-GIPR expression ([7]; replicate 11): 1.055
- Surface SNAP-GIPR expression ([7]; replicate 12): 1.013
- Surface SNAP-GIPR expression ([7]; replicate 13): 0.7103
- Surface SNAP-GIPR expression ([7]; replicate 14): 1.142
- Surface SNAP-GIPR expression ([7]; replicate 15): 0.8074
- Surface SNAP-GIPR expression ([7]; replicate 16): 0.9322
- Surface SNAP-GIPR expression ([7]; replicate 17): 0.8667
- Surface SNAP-GIPR expression ([7]; replicate 18): 1.004
- Surface SNAP-GIPR expression ([7]; replicate 19): 0.9824
- Surface SNAP-GIPR expression ([7]; replicate 20): 1.058
- Surface SNAP-GIPR expression ([7]; replicate 21): 0.9727
- Surface SNAP-GIPR expression ([7]; replicate 22): 0.8965
- Surface SNAP-GIPR expression ([7]; replicate 23): 0.778
- Surface SNAP-GIPR expression ([7]; replicate 24): 0.7544
- Surface SNAP-GIPR expression ([7]; replicate 25): 1.062
- Surface SNAP-GIPR expression ([7]; replicate 26): 1.025
- Surface SNAP-GIPR expression ([7]; replicate 27): 0.9727
- Surface SNAP-GIPR expression ([7]; replicate 28): 0.7869
- Surface SNAP-GIPR expression ([7]; replicate 29): 1.148
- Surface SNAP-GIPR expression ([7]; replicate 30): 1.341
- Surface SNAP-GIPR expression ([7]; replicate 31): 1.222
- Surface SNAP-GIPR expression ([7]; replicate 32): 1.042
- Surface SNAP-GIPR expression ([7]; replicate 33): 1.006
- Surface SNAP-GIPR expression ([7]; replicate 34): 0.7344
- Surface SNAP-GIPR expression ([7]; replicate 35): 1.077
- Surface SNAP-GIPR expression ([7]; replicate 36): 1.167
- Surface SNAP-GIPR expression ([7]; replicate 37): 1.212
- Surface SNAP-GIPR expression ([7]; replicate 38): 1.22
- Surface SNAP-GIPR expression ([7]; replicate 39): 1.259
- Surface SNAP-GIPR expression ([7]; replicate 40): 1.054
- Surface SNAP-GIPR expression ([7]; replicate 41): 1.032

B2: R404H (protein, UniProt P48546 22-466, looked up, variant R404H)
Gastric inhibitory …: RAETGSKGQTAGELYQRWERYRRECQETLAAAEPPSGLACNGSFDMYVCWDYAAPNATARASCPWYLPWHHHVAAGFVLRQCGSDGQWGLWRDHTQCENPEKNEAFLDQRLILERLQVMYTVGYSLSLATLLLALLILSLFRRLHCTRNYIHINLFTSFMLRAAAILSRDRLLPRPGPYLGDQALALWNQALAACRTAQIVTQYCVGANYTWLLVEGVYLHSLLVLVGGSEEGHFRYYLLLGWGAPALFVIPWVIVRYLYENTQCWERNEVKAIWWIIRTPILMTILINFLIFIRILGILLSKLRTRQMRCRDYRLRLARSTLTLVPLLGVHEVVFAPVTEEQARGALRFAKLGFEIFLSSFQGFLVSVLYCFINKEVQSEIHRGWHHCRLRRSLGEEQRQLPERAFRALPSGSGPGEVPTSRGLSSGTLPGPGNEASRELESYC
- AD293 100 pM cADDis [1]: 26.6869
- AD293 100 nM cADDis [1]: 37.59
- Surface expression [2]: 0.8156
- INS-1 cAMP (100 nM) [3]: 0.9867
- +GIP internalisation (100 nM) [4]: 0.4112
- GIP-specific internalisation (100 nM) [4]: 0.07509
- Constitutive internalisation (100 nM) [4]: 0.3361
- Surface expression [4]: 0.7754
- Internalisation, +GIP [4]: 56.8624
- Internalisation, GIP-only [4]: 10.8785
- Internalisation, Vehicle [4]: 45.9839
- AD293 100 pM HTRF [5]: 0.3628
- AD293 100 nM HTRF [5]: 1.255
- +GIP internalisation (100 nM) [6]: 0.3918
- GIP-specific internalisation (100 nM) [6]: 0.07675
- Constitutive internalisation (100 nM) [6]: 0.3151
- Internalisation, +GIP [6]: 48.5
- Internalisation, GIP-only [6]: 9.682
- Internalisation, Vehicle [6]: 38.8183
- AD293 Surface [7, 8]: 0.7424
- AD293 Surface ([7]; paired with cAMP 100 pM): 0.7424
- Surface SNAP-GIPR expression ([7]; replicate 1): 0.7731
- Surface SNAP-GIPR expression ([7]; replicate 2): 0.8601
- Surface SNAP-GIPR expression ([7]; replicate 3): 1.364
- Surface SNAP-GIPR expression ([7]; replicate 4): 1.202
- Surface SNAP-GIPR expression ([7]; replicate 5): 0.6596
- Surface SNAP-GIPR expression ([7]; replicate 6): 0.8044
- Surface SNAP-GIPR expression ([7]; replicate 7): 1.014
- Surface SNAP-GIPR expression ([7]; replicate 8): 0.8566
- Surface SNAP-GIPR expression ([7]; replicate 9): 0.836
- Surface SNAP-GIPR expression ([7]; replicate 10): 0.8174
- Surface SNAP-GIPR expression ([7]; replicate 11): 0.6917
- Surface SNAP-GIPR expression ([7]; replicate 12): 0.5756
- Surface SNAP-GIPR expression ([7]; replicate 13): 0.812
- Surface SNAP-GIPR expression ([7]; replicate 14): 0.5735
- Surface SNAP-GIPR expression ([7]; replicate 15): 0.518
- Surface SNAP-GIPR expression ([7]; replicate 16): 0.5844
- Surface SNAP-GIPR expression ([7]; replicate 17): 0.7582
- Surface SNAP-GIPR expression ([7]; replicate 18): 0.6508
- Surface SNAP-GIPR expression ([7]; replicate 19): 0.4867
- Surface SNAP-GIPR expression ([7]; replicate 20): 0.616
- Surface SNAP-GIPR expression ([7]; replicate 21): 0.5336
- Surface SNAP-GIPR expression ([7]; replicate 22): 0.6715
- Surface SNAP-GIPR expression ([7]; replicate 23): 0.7341
- Surface SNAP-GIPR expression ([7]; replicate 24): 0.6837
- Surface SNAP-GIPR expression ([7]; replicate 25): 0.9077
- Surface SNAP-GIPR expression ([7]; replicate 26): 0.65
- Surface SNAP-GIPR expression ([7]; replicate 27): 0.7009
- Surface SNAP-GIPR expression ([7]; replicate 28): 0.5824
- Surface SNAP-GIPR expression ([7]; replicate 29): 0.9349
- Surface SNAP-GIPR expression ([7]; replicate 30): 0.779
- Surface SNAP-GIPR expression ([7]; replicate 31): 0.9227
- Surface SNAP-GIPR expression ([7]; replicate 32): 0.586
- Surface SNAP-GIPR expression ([7]; replicate 33): 0.6419
- Surface SNAP-GIPR expression ([7]; replicate 34): 0.7664
- Surface SNAP-GIPR expression ([7]; replicate 35): 0.5787
- Surface SNAP-GIPR expression ([7]; replicate 36): 0.8557
- Surface SNAP-GIPR expression ([7]; replicate 37): 0.7468
- Surface SNAP-GIPR expression ([7]; replicate 38): 0.7266
- Surface SNAP-GIPR expression ([7]; replicate 39): 0.577
- Surface SNAP-GIPR expression ([7]; replicate 40): 0.6491
- Surface SNAP-GIPR expression ([7]; replicate 41): 0.7544
